Values of other authors in publication PMC3144249.

Assays:
[1] = target: arrestin-1 (Mus musculus) (UniProt P20443)
[2] = target: arrestin-1 dimer (Mus musculus) (UniProt P20443)

arrestin-1 (from UniProt P20443)
Kd [1]: 57.5 µM

arrestin-1 dimer (from UniProt P20443)
Kd [2]: 63.1 µM
